The Kd is the free concentration of one partner at which half of the binding sites on the other are occupied at equilibrium, for simple one-to-one binding. A high value points to lower affinity. For orientation: Km means the concentration of substrate that gives half-maximal velocity. The kcat is the number of substrate molecules converted per active site and unit of time at saturation.

For series [1], the target named is T1, Orf1 (Streptomyces luteocolor, UniProt A0A125SZC1, R342A).
T1 construct: full length, 491 residues; pET28a, His-tagged (Ni-NTA), E. coli BL21(DE3); tetramer with FAD in each chain; peptide AFAC281GLHLVPR
Nature of the series: isothermal titration calorimetry. Format: binding. From the text: isothermal titration calorimetry on Orf1 | held the same ST-F binding affinity as the wild type

Series [2] addresses T2, Orf1 (Streptomyces luteocolor, UniProt A0A125SZC1, E312A).
T2 construct: full length, 491 residues; pET28a, His-tagged (Ni-NTA), E. coli BL21(DE3); tetramer with FAD in each chain; peptide AFAC281GLHLVPR
Nature of the series: isothermal titration calorimetry. In kind it is binding. A general note: In ITC the heat of successive injections is recorded.

Series [3] deals with T3, Orf1 (Streptomyces luteocolor, UniProt A0A125SZC1).
T3 construct: full length, 491 residues; pET28a, His-tagged (Ni-NTA), E. coli BL21(DE3); tetramer with FAD in each chain; peptide AFAC281GLHLVPR
T3 sequence (A0A125SZC1 1-491): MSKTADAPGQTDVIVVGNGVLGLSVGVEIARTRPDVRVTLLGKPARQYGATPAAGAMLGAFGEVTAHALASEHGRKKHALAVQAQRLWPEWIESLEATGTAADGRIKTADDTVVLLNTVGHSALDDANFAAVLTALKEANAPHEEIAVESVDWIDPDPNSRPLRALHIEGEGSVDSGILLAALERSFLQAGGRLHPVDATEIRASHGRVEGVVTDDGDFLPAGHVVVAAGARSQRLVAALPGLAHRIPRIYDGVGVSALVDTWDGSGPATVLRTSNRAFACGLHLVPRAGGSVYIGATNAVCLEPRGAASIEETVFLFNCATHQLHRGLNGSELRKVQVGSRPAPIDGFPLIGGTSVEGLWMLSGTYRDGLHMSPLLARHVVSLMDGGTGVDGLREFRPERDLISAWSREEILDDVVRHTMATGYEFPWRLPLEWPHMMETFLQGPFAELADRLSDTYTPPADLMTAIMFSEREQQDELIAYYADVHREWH
The experiment in a line: isothermal titration calorimetry. Format: binding. The text has this: isothermal titration calorimetry on Orf1 | binding affinities of ST-F versus Orf1 wild-type or mutants were estimated

The target of series [4] is T3, Orf1. Nature of the series: LC-MS of denatured protein; X-ray crystal structure. Particulars: prosthetic group, copurified. In kind it is binding.
The target of series [5] is T4, AAC(6’)-Ie-APH(6”)-Ia; aac(6’)-Ie-aph(2”)-Ia (Staphylococcus aureus, UniProt P0A0C1).
T4 construct: gene aacA-aphD; synthetic gene, recombinant
Nature of the series: in vitro N-acetylation assay. In kind it is biochemical. Particulars: acetylation only to some extent.

In series [6] the test system is NCCCC(N)CC(=O)NC1C(N=C2NC3C(=O)NCC(O)C3N2)OC(CO)C(OC(N)=O)C1O. The experiment in a line: LC-MS of ST-F consumption. Format: biochemical, Streptomyces luteocolor. Particulars: glycine + ST-F, ST-F varied 25-500 μM, 100 mM sodium phosphate pH 8, 37 °C, crystal complex with glycine.
Substrate in series [7]: NCCCC(N)CC(=O)NC1C(N=C2NC3C(=O)NCC(O)C3N2)OC(CO)C(OC(N)=O)C1O
Nature of the series: LC-MS of ST-F consumption. In kind it is biochemical, Streptomyces luteocolor. The conditions noted are these: glycine + ST-F, ST-F varied 25-500 μM, 100 mM sodium phosphate pH 8, 37 °C.

Substrate in the series “purified protein”: NCC(=O)O
The experiment in a line: purified protein. In kind it is biochemical, Streptomyces luteocolor. Particulars: single substrate glycine (oxidation phase), 100 mM sodium phosphate pH 8, crystal complex also shows covalent glycine imine-N-O-S adduct at C281.

For `NCCCC(N)CC(=O)NC1C(N=C2NC3C(=O)NCC(O)C3N2)OC(CO)C(OC(N)=O)C1O` (centres unmarked) [compound 7, ST-F], the Kd came to 14.3 µM on Orf1 [1], 55.2 µM at Orf1 [2] and 11.3 µM on Orf1 [3].

For the molecule `Cc1cc2nc3c(=O)[nH]c(=O)nc-3n(C[C@H](O)[C@H](O)[C@H](O)COP(=O)(O)OP(=O)(O)OC[C@H]3O[C@@H](n4cnc5c(N)ncnc54)[C@H](O)[C@@H]3O)c2cc1C` [FAD], at Orf1 [4], the “LC-MS of denatured protein; X-ray crystal structure” value is reported as “This yellow cofactor was determined to be flavin adenine dinucleotide (FAD)”.

With `NCC(=O)N[C@@H]1[C@H](O)[C@@H](OC(N)=O)[C@@H](CO)O[C@H]1N=C1N[C@@H]2[C@H](O)CNC(=O)[C@H]2N1` [compound 4, glycylthricin], in series [5], the “in vitro N-acetylation assay” value is “inactivated glycylthricin by N-acetylation to some extent in in vitro assay”.

Regarding Orf1 (Streptomyces luteocolor; F316A), in series [6], the Michaelis constant (Km) came to 190 µM and the turnover number (kcat) was found to be 0.119 s⁻¹.

B1: Orf1 (Streptomyces luteocolor) (protein)
chain: MSKTADAPGQTDVIVVGNGVLGLSVGVEIARTRPDVRVTLLGKPARQYGATPAAGAMLGAFGEVTAHALASEHGRKKHALAVQAQRLWPEWIESLEATGTAADGRIKTADDTVVLLNTVGHSALDDANFAAVLTALKEANAPHEEIAVESVDWIDPDPNSRPLRALHIEGEGSVDSGILLAALERSFLQAGGRLHPVDATEIRASHGRVEGVVTDDGDFLPAGHVVVAAGARSQRLVAALPGLAHRIPRIYDGVGVSALVDTWDGSGPATVLRTSNRAFACGLHLVPRAGGSVYIGATNAVCLEPRGAASIEETVFLFNCATHQLHRGLNGSELRKVQVGSRPAPIDGFPLIGGTSVEGLWMLSGTYRDGLHMSPLLARHVVSLMDGGTGVDGLREFRPERDLISAWSREEILDDVVRHTMATGYEFPWRLPLEWPHMMETFLQGPFAELADRLSDTYTPPADLMTAIMFSEREQQDELIAYYADVHREWH
notes: full length, 491 residues; pET28a, His-tagged (Ni-NTA), E. coli BL21(DE3); tetramer with FAD in each chain; peptide AFAC281GLHLVPR
As for B1, the results for the Michaelis constant (Km) (in series [7]; in “purified protein”) were 196 µM and 202 µM, respectively. Also, the turnover number (kcat) in series [7] is 0.0513 s⁻¹; in the series “purified protein” it was 0.0123 s⁻¹.

Source of the values: article PMC10156733, “N-Formimidoylation/-iminoacetylation modification in aminoglycosides requires FAD-dependent and ligand-protein NOS bridge dual chemistry” (Nature Communications, 2023).
